Test results as given in US20160263137A1.

Columns and labels:
[1] = target: death receptor (DR) on the plasma membrane of MDA-MB-231 cells; assay: cell-based or functional assay
[2] = target: death receptor (DR) on the plasma membrane of MDA-MB-231 cells; assay: fluorescence of cell-associated r-TRAIL on MDA-MB-231 cells, 4 C (membrane only) against 37 C (membrane plus internalised), r-TRAIL-Gelipo 0.2 ug/mL after HAase treatment

For “His-ILZ-TRAIL (residues 114-281) (from UniProt P50591 114-281) (ligand)”, the apoptosis ratio, Annexin V-FITC/PI flow cytometry, MDA-MB-231 cells, 12 h, free TRAIL 2 ng/mL [1] was 36.5%, the apoptosis ratio, Annexin V-FITC/PI flow cytometry, MDA-MB-231 cells, 12 h, free TRAIL 20 ng/mL [1] was 51.7% and the viability, Annexin V-FITC/PI flow cytometry, MDA-MB-231 cells, 12 h, free TRAIL 20 ng/mL [1] was 32.3%.

Work on “rhodamine-labeled TRAIL (His-ILZ-TRAIL, residues 114-281, labelled with rhodamine NHS ester) (from UniProt P50591 114-281) (ligand)” yielded a percent of r-TRAIL bound onto the membrane [2] of 80%.
